The source of these data is publication PMC6138676, “Skeletal Muscle Dystrophy mutant of lamin A alters the structure and dynamics of the Ig fold domain” (Scientific Reports, 2018).

Usually stoichiometry N stands for the number of molecules, sites or subunits per partner or assembly.

This data set concerns the molecule itself. Kind of data set: SEC-MALS; 3 mg/ml protein; Superdex 200 Increase 10/300 equilibrated in 25 mM Tris-HCl pH 8.5, 250 mM NaCl; 20 °C; 30 µL injected, 0.6 mL/min.

B1: Human lamin A Ig (428-552) (domain or fragment, UniProt P02545 428-552, looked up)
chain: SSFSQHARTSGRVAVEEVDEEGKFVRLRNKSNEDQSMGNWQIKRQNGDDPLLTYRFPPKFTLKAGQVVTIWAAGAGATHSPPTDLVWKAQNTWGCGNSLRTALINSTGEEVAMRKLVRSVTVVED
notes: Ig fold domain of human lamin A, residues 428-552, cloned into pQE-80L between BamHI and KpnI; For the NMR experiments the protein was 13C,15N-labelled; also called wild type Ig; Ig fold domain of lamin A; source: E. coli BL21 (DE3) pLysS, purified (His-Trap column)
For the protein B1, the “stoichiometry N” value stood at 2.
